{"source": "patent US20160208004A1", "binders": {"B1": {"name": "3.1404 (antibody, from a related filing, V domains shown)", "VH": "QVQLVQSGAEVKKPGASVKVSCKASGYTFTRYGISWVRQAPGQGLEWMGWISTYSGNTNYAQKLQGRVTMTTDTSTSTAYMELRSLRSDDTAVYYCARRQLYFDYWGQGTLVTVSS", "VL": "EIVMTQSPATLSVSPGERATLSCRASQSVSSNLAWFQQKPGQAPRPLIYDASTRATGVPARFSGSGSGTDFTLTISSLQSEDFAVYYCQQYDNWPLTFGGGTKVEIK"}, "B2": {"name": "3.381 (antibody, from a related filing, V domains shown)", "VH": "B1 VH with T53A", "VL": "B1 VL with A19V, T56A, V58I"}}, "target": "human IL-17RA (human) (UniProt Q96F46)", "assay": "cell-based or functional assay", "note": "Changes are numbered by the printed parent chain."}
{"binder": "B1", "values": [{"measurement": "% Inhib. of IL-5 production, TSLP treated human PBMC + IL-2 + IL-25, Expt. 1", "result": 68, "unit": "%"}, {"measurement": "% Inhib. of IL-5 production, TSLP treated human PBMC + IL-2 + IL-25, Expt. 2", "result": 76, "unit": "%"}, {"measurement": "% Inhibition of IL-5 production, TSLP treated human PBMC + IL-2 + IL-25; inhibitor 0.1 micrograms/mL", "result": 12, "unit": "%"}, {"measurement": "% Inhibition of IL-5 production, TSLP treated human PBMC + IL-2 + IL-25; inhibitor 1.0 micrograms/mL", "result": 54, "unit": "%"}]}
{"binder": "B2", "values": [{"measurement": "% Inhib. of IL-5 production, TSLP treated human PBMC + IL-2 + IL-25, Expt. 1", "result": 90, "unit": "%"}, {"measurement": "% Inhib. of IL-5 production, TSLP treated human PBMC + IL-2 + IL-25, Expt. 2", "result": 75, "unit": "%"}, {"measurement": "% Inhibition of IL-5 production, TSLP treated human PBMC + IL-2 + IL-25; inhibitor 10 micrograms/mL", "result": 100, "unit": "%"}]}
